# Assay: soluble fraction after stress (log2 fold change); higher = more stays soluble; pooled small domains, quantitative proteomics
# Settings: stress: 50 degC
# Method in brief: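 Pooled custom libraries of small protein domains were each held under stress at 50°C. The read-out, high-throughput quantitative proteomics, tracked how much of each protein stayed soluble. This is reported as a base-two log fold change used to indicate aggregation propensity. Higher values mean more protein remains in solution.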
row,Sequence,soluble fraction (log2)
1,HMSRLMIVTPDGRIMDDVPEFGEVRTTTDVNGRVLVLDRNNVVIGFEMTPREYRREFGRNPF,-0.643
2,HMKPLAQQVNDYLAATRTSIATLANEIPGYSRPTISRYLAGKYDGDITTIEKLLAEWLAQRTG,-0.354
3,HMEVADAAQRKILQALQVQPLTVEQLSQELRTDTGDLLVSLSMMEITGLIRREAGNTFLAVFAPK,-0.448
4,HMGQISDESVLKEMVVQLIADNPKEVASYLGGKETLLQWFMGQVARATKGKADPQAVKQLLLDEFEKLK,0.092
5,HMEDTSTLSIKHKIKELINQESPQAILSDDKLVELLAAQGIKIARRTIAKYRETMNIPTSAERKRQKRPP,0.479
6,HMTAGTGIAYSEFRSKVQEGQVKDVAIAPDRITGTLSSGQKFSTVPVNDPGLPKMLDDFNVKYSGQA,0.104
7,HMSVDAMDEANERKMAKTFNMIVLGGLLKIRPIVSIESVIKALRKTLPERHHHLIPMNEEAIHIGMDII,0.0597
8,HMPSSFLVKVTADALNIRSGPGVANRITGTIKDKGTYTIVDTKDDWGKLKSGVGWIHLGYTKRLD,-0.33
9,HMDAYLPETVQKLLDVMDFDVPYSAAQLMEKLGLKSRASFRKLYLLPALEKNLIAMGVPDKPTSRNQTYIR,-0.417
10,HMAGGNHPTRLELLDSAAHIAERDGTSALTVDAITKSAGHAKGTFYIHFDDRADLLVEMHRR,-0.183
11,HMVNTYILNNKEYPIEIIRKNNKNTYLRVKEGKIIVTTNYLTSSFTINKLIKDNTSFINKALLKEN,-0.595
12,HMDELIKQVANYIINNRATINETAGAFGKSVSSIKKYINDADKLQRIDFELYQKVKEVQKIVELNGQI,0.144
13,HMPQPDVIEVRQGIVTGMRPDRRTGWLRDEEDAAGEPKSFSIDVITPKGRTPGKGAVVTYTLTNGKITEVK,-0.0415
14,HMAIHTSVTEHGEHDLTVRMEMEQVFAIEMAVVSHEQATMLERTFKANAEAIYQKLLGVMTQEYP,-2.33
15,HMRAEPNSNYSLAIIYKNRYDIAVKKKDAVKEVEYGKMVYEYLNKYVVLSGNKSAKYKKILNYFSSY,-3.04
16,HMEVKRANRKERFLEALPYQFSRQDYLNIADKNKIPHKTAEGYITKFVDAGLIHREAHNNYTNPTKA,0.146
17,HMENSYSVEDLALKAAISVDTIRYYQGLGLISPPQKNGRRAIYGNDHISRLEEIKKLAFEGFSLRQISLL,-0.224
18,HMGIFAQTTKWRDIYTVKKKDTIFGIANKYGLSLPELMEANPEMKQEGYMLQKGTTLFIPFASD,-0.483
19,HMTDTSFPRLGAPEEELLSFLAKWEIDAEDAHYTKFSLYYQSTGKMMRDWKATWRAWKERQSELNAQR,-1.68
20,HMEVPNLIGMTDKDLQRTYFQLPIEAAGDGSVVIKQLPEPGEKVKEGSVIRVLLG,0.171
21,HMRQSKMREAILAAVSAQKLEISDLHVWRIGEQRYAAIIGLATTQAESVSALRDSLAQMDKLVHLTIDQ,-1.89
22,HMDEYGEVQALQRAGQTSEALARADRHIAAHPNDPQMRFVKANLLSAGGRAGEAETLLVQLTRD,-0.0234
23,HMSDPFSPTTTLKNRAKSVLSVDSFEDFKLFIKKMWQEKKEGVYQNPNVETWKDWDNISVKDAKILISLI,-0.474
24,HMSNEYLMPNLIGMSWDEAKSKYSQYMTLVPEQEWSEVTKDQIFDQEYPEGRKVKIGTEVTVKVSMGI,-0.192
25,HMVSLSNQVFEKIEYDILSGKYKIGEIISEKRLSSELGVSRTPIREALGRLSEEGLVGDSPSGTVVLGI,-0.431

row,Sequence,soluble fraction (log2)
1,HMKGEKVTKIELSNFIKFLINDLENKGFFNPPEKKDSMIDNIYSIYNKMTLTKKELNMLWGMHKKLK,-1.44
2,HMNNPISMQKLRQVIRLYGQGKGTKSINSMLGVSRNTIKKYLQVYHSSGINYESFLAMSDKELSAVFLV,-0.398
3,HMGNIADARRDASYVFLIGEWAKSSNLTEKKLAGLIQSNHLDIKYGITVTDVIADIRKYKNDPTYNPF,-0.305
4,HMLKDGPIGAYADSVIRDIIEKMERFSKEHINVDMLKIHEKIMLIDEPIIRMALLDEFHRVSHDN,-2.09
5,HMASDEVPGAGFKWREDVLLRVMEANGIDKSNRDDFVRHAVNFDDDDNNYLKKAEIEAAAAAWVESQSPA,-0.291
6,HMSDGTVYGSDGVIKVNLPQSGMLRIYATDGTTLVNRWQAAGIDTISMPRGLYIVRFDNQVWKVVV,-0.74
7,HMPDLSYVDEVLNRYKGHKGTLITVLQQVQAHKGYLEKEALERVARSMGVPTARIYGVVTFYAQFR,0.0318
8,HMYTEIDDVKDLLSKIPSVNKLTTADRGMVQAARNAYDALDEDQKLYITIADVEKFNAAVEWMEEH,0.0056
9,HMVPLTPGELVGTEVRVLWWKEGRGEVIASSRGHQLTLEAHSEDPLRAGSTAVVLEAADDVLVVTS,-0.569
10,HMQQLAEQIPTDRPYISIAEAVVLFGISRDTIYRQIRKGNIPAVNLGERLTRISRIHIEAMFPKV,-0.563
11,HMEPKIKQIVPNVVNYPVEDAKNVLVNSGLIVQIRGQGNIVYDQVPKGGAEVTRGTTVILDLNPPPGA,0.42
12,HMGASSLVGRSARVLQAVTDSDGRIKLAGETWSARLAAGATSTVGPGEEVRVIAIHGATAIVAPV,0.0322
13,HMFWVESDVDFVDKTSAHNAIKENERVIGMYISYRLNGTWTTEQYVGIDTSKDNWENPDNWNIL,-0.308
14,HMSIEIIEITSNSSPKNLSEIIDIDATQIVADLMGLGIMKAIDTPLENSEIEQLLEKYNLIAEFVE,-1.47
15,HMYMKGKVKWFDSKKGYGFITSENGKEIFVHFSGIAAKGFKSLNEGQTVEFEVANGAKGEQAVNVTV,-0.804
16,HMKIKLQATEQQRKTLDELYVQLKKLEPTSKEDLSLLYRLENPHLVSKQEAQGLISIAIGRVGSLAIEQQ,-0.27
17,HMADLNQTDIDSITKSVGGVEQYKSLMDWAGKTLSQDAIDSFDDLVNTGNKGSIQLAVNGLVAQYQNDN,0.0325
18,HMTGESVPAPLSGTIFKILVAPGEQVEEGQTVIILEAMKMETEISAPRSGVVGAINIKEGDSVQVGQSLFT,0.0706
19,HMDTLRARQEAAYRFLSAIAGDWRNYEEANRALFAGDAARFQDLTESWPADVRDHARHLASAAFSS,-0.543
20,HMLSVLKNVDVNSLSDDKIKTYWQQIQKSGYTLDEVEVLAEAQGISPLKIAAFKRRVQSLQQSLQT,0.199
21,HMNNKVAVKSGYYFELFDKDEIPATLEKMKQKVKIDNIKYDLYQGTSLEDERKIDTMFGEKMGYSIDDYI,0.0224
22,HMPTLLGYKHILSAWNPDTNTVFRTSYGYDGEYGSREEAMQALIKMIQEGGKATPRGIEESEVPIY,-0.126
23,HMSDHSSLAGKEGVAVTPLRPAGTAEIDGKRMDVVTMGDYIKAGDHIKVVKVEGNRIIVAKN,0.0433
24,HMVYVPTKAEVSQQFQDASKARFDERYAIVELADGRRTMAPLAFLTKADHAWLKQLASTSPLPKGK,0.0196
25,HMSGYAIVNNQPGRTLNLRNSPSQSNNIIGQIPSGTRLQLISRGETWSEVIFQTTRGFVMSSFLRFET,-0.809

row,Sequence,soluble fraction (log2)
1,HMFDGNIKIVEDAFSVTIVARGTEVKISGDPENVYLASKTVEGLLTLIDKGEAITDQRVHYVIGLVREG,-2.65
2,HMQALDNNDALEEIIKKVITENPSQVTEFRNGKDSLMNFLVGKVMAASGGKANPKTLPETIEKIIK,0.12
3,HMEEQKYEYHLGDVVYLGVDKYEILGITNNIVTLYDPEFPLLNKQLDFDEFEKRVKDNYANEHLKVT,-0.429
4,HMEWTVEKQAAATLNAWMRKNSEMTSEKKVAVAAGIGPATVNRIMKAEVSTTIGVLSSLARAFGHEAYEMI,-0.276
5,HMVSTGIMVVDGRGSVLQHNEAALRQLGVEVLTFESQVKEKLASEDFSVRETTAMLNGKKVRIIAFSDIR,-1.62
6,HMVKLQATPSQRKTLDELYVQLKKLEPTAKEDLSLLRRLENSHLVSKQEAQGLISKAIGRVGALAVEQQP,0.0652
7,HMDDNRSLSDLAQQVFKRENIQVSRDTLSLLVSRLGSDRAVSRQEIEKLALFAGSNGKLTEEDIHNALG,0.192
8,HMELSAQEIGRRLRIARENADIRQDDAAQVIGMSRPTLVSIEKGVRRVRIQEIQMLARHYGVSVNALLR,-2.14
9,HMPLEQAELRLDLKQAILQMDRQTQELLLLRYVDGLSPGEAGKVLELSRFAVYRREKEALRKLRDYFSH,-1.79
10,HMSLMLYVEDVDTAFKKAIELGATEIRPVHDQFYGDRAGTLQDPFGHIWIIGTHKEDVSDEELNNRIGNI,-0.0131
11,HMSASEKLFEARKNLNIVNVLGKNPVDRYDIVKILKHGDHYHIYDSKGNEGITYTNPKSLYPEAEFGEYQG,0.12
12,HMDDNMNEQWKMILNSIAKKGSVTRQETEKILGIGQTRAHVLLKAMIHAGMIKAVGDGKKRRYVR,-1.01
13,HMNGKPDMTPIPAGSRNNDLHAWAYGRLLNHPDNAEAIRRDLFERGQTSGLKESELETIWQSIRRQLGGD,0.249
14,HMGESFPYVAYATDSVRLRARPSSSATILTVIRKGDAVLITGADGSYKIVEYEGRKGYVVSAFLSSQET,-0.857
15,HMVPTVSVDRDDTLRFEGRPVDWDVLKRELGAVAGIDELKIYADAKVSALTVSKIMKSASEAGVLQFILVT,-0.188
16,HMVPQEVLPITLIIDGKLIEENLLYAKMTEQVLIQQLDINNIKSIKQILFAGLDSFGNFFYQEKQN,-1.8
17,HMIETLGDATFKRLKAMILDGTLEPGTRLSEKKFADHLGVSRTPVREAIGQLVSEGLAKRSAGSAPVVSS,0.0372
18,HMSSVRDNGDLELVPGDRIRHDDYGEGRVTAVTGVGSKRIAHAVFDSVGERKLLIKLSPIEKI,-0.0293
19,HMKDNPNETFERIAGKITRTLRSGPVRIQQLDLLFSESAGKVVDVLRAMAENGEVLIKDDTIQLNGNN,0.0379
20,HMDKPIFTLRENEVLYWASMGKTYAEIATIVGISVRTVKFHMGNVVSKLGVSNARQAIRLGVELDLITPMQ,-2
21,HMTKRKNTEFRQQQIIEAAAKLIFKYGSEHLTVKRIAAQVGISEAAIYRHFTSKKSILSFLLSHIEE,-0.423
22,HMIDEKVQAADKSIEIGNLSPLKGLVTDDEMHELEKLFEKVMALKDFEVNDVGAGRKYIEAYVSFFKFAEG,-0.661
23,HMDFTPDQIARLDDIISRYKDKPGGLIPVLEEAQVALEYLPIGVQKRIAKGLNLPLSRVYGVVTFYSFFTM,-0.0911
24,HMDIFLPDVKGYDLIPSFRRHLPDIDVIAMTGYNTRALESAVRQQDVLFYMIKPFEASQLKEILEHLVK,-0.221
25,HMEKKTILIPPVITVRALAEISQIPVNRLLQELIKNGVFTSINEKIDFDTAVIIGADLNLDIQLL,-0.95

# Source: the domain aggregation screens of Martell et al. (2025)
